Laboratory results published in PMC13001094, “Cargo Recognition of Nesprin‑2 by the Dynein Adapter Bicaudal D2 for a Nuclear Positioning Pathway That Is Important for Brain Development” (Biochemistry, 2026).

Assays:
[1] = molecular target: Cytoplasmic dynein (bovine); assay: two-colour single-molecule assay (TIRF) of reconstituted complexes on microtubules; BicD2, instead of Nesprin-2, labelled with two different colours in DDBN complexes
[2] = molecular target: T1, GST-tagged human Nesprin-1 (aa 7997–8328) (human, UniProt Q8NF91 7997-8328); assay: pull-down; GST-tagged Nesprin-1/2 fragment held on glutathione column (not eluted), incubated 30 min with Ni-NTA-purified His6-BicD2-CTD diluted to 125 mM NaCl; washed twice; eluted with 10 mM glutathione, 50 mM Tris pH 8.0, 150 mM NaCl, 1 mM DTT; SDS-PAGE, Coomassie; band ratio normalised to WT = 1; conditions: both partners purified
T1 construct: Nesprin-1, human, aa 7997-8328 cloned (the results speak of the domain aa 7998-8315: SR70, SR71 and a disordered domain with a LEWD motif); cloned into the same vector (pGEX6p1) as the Nesprin-2 fragment; also called Nesprin-1-SR70-SR71AD; Nesprin-1 fragment; source: E. coli BL21(DE3)-RIL, purified on glutathione resin (not eluted before the pull-down); not shown: GST, N-terminal, kept
T1 sequence (looked up): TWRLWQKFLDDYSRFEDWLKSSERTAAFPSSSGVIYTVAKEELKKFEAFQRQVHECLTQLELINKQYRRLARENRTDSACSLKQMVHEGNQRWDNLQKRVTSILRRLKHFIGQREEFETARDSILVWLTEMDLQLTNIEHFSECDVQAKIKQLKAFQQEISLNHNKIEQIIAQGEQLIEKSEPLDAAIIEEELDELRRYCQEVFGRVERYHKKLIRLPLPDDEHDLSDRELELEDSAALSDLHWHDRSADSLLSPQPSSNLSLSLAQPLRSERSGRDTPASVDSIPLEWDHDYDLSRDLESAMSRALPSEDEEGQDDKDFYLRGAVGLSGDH

[3] = molecular target: T2, GST-tagged Nesprin-2 (aa 6123–6340) (mouse, UniProt Q6ZWQ0 6123-6340); assay: as above; conditions: both partners purified
T2 construct: lacks the entire intrinsically disordered domain with the LEWD motif; deletion construct of m1; source: E. coli BL21(DE3)-RIL, purified on glutathione resin (not eluted before the pull-down); not shown: GST, N-terminal, kept
T2 sequence (looked up): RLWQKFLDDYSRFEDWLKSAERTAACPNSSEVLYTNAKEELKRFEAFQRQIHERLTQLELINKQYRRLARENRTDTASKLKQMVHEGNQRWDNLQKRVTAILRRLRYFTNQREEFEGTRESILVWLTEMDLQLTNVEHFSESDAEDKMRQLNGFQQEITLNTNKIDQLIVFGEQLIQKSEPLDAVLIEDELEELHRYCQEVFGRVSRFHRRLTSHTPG

[4] = molecular target: T3, GST-tagged mouse Nesprin-2 (aa 6123–6421) (mouse, UniProt Q6ZWQ0 6123-6421); assay: as above; conditions: both partners purified
T3 construct: pGEX6p1 vector; codon-optimised insert from Genscript; also called Nesprin-2-SR52-SR53AD; minimal Nesprin-2 fragment; source: E. coli BL21(DE3)-RIL, purified on glutathione resin (not eluted before the pull-down); not shown: GST, N-terminal, kept
T3 sequence (looked up): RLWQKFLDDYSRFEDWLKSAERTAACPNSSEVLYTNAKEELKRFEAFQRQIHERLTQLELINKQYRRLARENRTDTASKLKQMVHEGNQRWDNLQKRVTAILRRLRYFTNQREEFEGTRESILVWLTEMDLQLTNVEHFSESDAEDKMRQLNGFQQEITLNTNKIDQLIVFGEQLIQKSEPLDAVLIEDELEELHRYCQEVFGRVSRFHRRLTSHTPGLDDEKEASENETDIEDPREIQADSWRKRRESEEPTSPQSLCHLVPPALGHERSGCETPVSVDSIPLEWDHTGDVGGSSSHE

[5] = molecular target: T4, Nesprin-2 fragment of the purified minimal Nesprin-2/BicD2 complex used for SEC-MALS (mouse); assay: SEC-MALS; purified minimal Nesprin-2/BicD2 complex, GST tag on Nesprin-2; methods in the supplement; conditions: both partners purified
T4 chain: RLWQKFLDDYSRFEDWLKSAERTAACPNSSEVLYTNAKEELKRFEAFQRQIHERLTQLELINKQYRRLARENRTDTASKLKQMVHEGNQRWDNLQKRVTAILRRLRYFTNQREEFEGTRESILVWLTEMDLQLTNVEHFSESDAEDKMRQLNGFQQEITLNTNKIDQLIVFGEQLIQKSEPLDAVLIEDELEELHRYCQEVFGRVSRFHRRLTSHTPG

For “Full-length, wild-type human BicD2 (from UniProt Q8TD16-2 1-855) (natural protein)”, the stoichiometry N (BicD2 per DDBN complex) [1] was 1.

B1: His6-tagged human BicD2-CTD (aa 715–804) (domain or fragment, UniProt Q8TD16-2 715-804, looked up)
chain: YENEKAMVTETMMKLRNELKALKEDAATFSSLRAMFATRCDEYITQLDEMQRQLAAAEDEKKTLNSLLRMAIQQKLALTQRLELLELDHE
notes: pET28a vector; source: E. coli LOBSTR BL21(DE3)-RIL, purified (Ni-NTA); not shown: His6, N-terminal, kept
B1: binds [2]; binds [3]; binds [4].

B2: BicD2-CTD of the purified minimal Nesprin-2/BicD2 complex used for SEC-MALS (domain or fragment, human, UniProt Q8TD16-2 715-804, looked up)
chain: YENEKAMVTETMMKLRNELKALKEDAATFSSLRAMFATRCDEYITQLDEMQRQLAAAEDEKKTLNSLLRMAIQQKLALTQRLELLELDHE
notes: printed protomer mass 10.9 kDa; also called BicD2 protomer (10.9 kDa)
B2 was tested, and the “stoichiometry N” value [5] was 1 BicD2 per Nesprin-2 (2:2 complex).
